Laboratory results taken from the supplement of paper PMC7877785.
± gives the uncertainty stated by the source.

Assay: self-splicing fitness, log relative to wild type (ln ratio); higher = more splicing; Tetrahymena group I intron in knt gene, E. coli kanamycin selection, DiMSum; sequences stand for … in CUCUCU…GGAGGGAAAAGUUAUCAGGCAUGCACCUGGUAGCUAGUCUUUAAACCAAUAGAUUGCAUCGGUUUAAAAGGCAAGACCGUCAAAUUGCGGGAAAGGGGUCAACAGCCGUUCAGUACCAAGUCUCAGGGGAAACUUUGAGAUGGCCUUGCAAAGGGUAUGGUAAUAAGCUGACGGACAUGGUCCUAACCACGCAGCCAAGUCCUAAGUCAACAGAUCUUCUGUUGAUAUGGAUGCAGUUCACAGACUAAAUGUCGGUCGGGGAAGAUGUAUUCUUCUCAUAAGAUAUAGUCGGACCUCUCCUUAAUGGGAGCUAGCGGAUGAAGUGAUGCAACACUGGAGCCGCUGGGAACUAAUUUGUAUGCGAAAGUAUAUUGAUUAGUUUUGGAGUACUCGUGGUCG
How it was run: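 The eight P1ex-region nucleotides of an intron in the knt kanamycin-resistance gene on pET-22b(+) were all randomised and the library put into E. coli BL21(DE3). Six replicate transformations were grown overnight at 37°C or 30°C on LB agar with or without 25 μg/mL kanamycin, together with 100 μg/mL carbenicillin, 50 μM IPTG and 0.2% rhamnose. Colonies were pooled and amplicon-sequenced on an Illumina HiSeq 2500. Fitness from DiMSum is the error-weighted combination of wild-type-normalised replicate fold changes, kanamycin over none.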

Row | Sequence | self-splicing fitness (ln) (30 °C) | self-splicing fitness (ln) (37 °C)
1 | UUGGAGCAAUAUUACGAGUU | -4.04 ± 0.26 | -3.45 ± 0.34
2 | UUGGAGCAAUAUUACGAUAA | -2.08 ± 0.26 | 0.881 ± 0.28
3 | UUGGAGCAAUAUUACGAUUA | -0.16 ± 0.41 | -1.3 ± 0.39
4 | UUGGAGCAAUAUUACGAUUU | -3.2 ± 0.21 | -2.86 ± 0.29
5 | UUGGAGCAAUAUUACGCAAA | -2.95 ± 0.44 | -2.54 ± 0.41
6 | UUGGAGCAAUAUUACGCUUU | -2.75 ± 0.23 | -2.3 ± 0.5
7 | UUGGAGCAAUAUUACGGCGU | – | -2.29 ± 0.35
8 | UUGGAGCAAUAUUACGGGAG | -4.02 ± 0.39 | -2.62 ± 0.31
9 | UUGGAGCAAUAUUACGGGCA | – | -1.45 ± 0.35
10 | UUGGAGCAAUAUUACGGGUC | -3.74 ± 0.34 | –
11 | UUGGAGCAAUAUUACGUAAG | -2.23 ± 0.26 | -0.995 ± 0.24
12 | UUGGAGCAAUAUUACGUCUC | -2.96 ± 0.33 | -2.41 ± 0.33
13 | UUGGAGCAAUAUUACGUGAA | -2.62 ± 0.21 | -1.27 ± 0.2
14 | UUGGAGCAAUAUUACGUGCG | -1.73 ± 0.28 | -0.739 ± 0.21
15 | UUGGAGCAAUAUUACGUUCG | -2.23 ± 0.16 | -0.989 ± 0.17
16 | UUGGAGCAAUAUUACGUUUC | -3.77 ± 0.43 | -3.44 ± 0.42
17 | UUGUAGCAAUAUUACGACAA | -0.0967 ± 0.15 | -0.283 ± 0.15
18 | UUGUAGCAAUAUUACGACGC | -2.8 ± 0.44 | -0.663 ± 0.36
19 | UUGUAGCAAUAUUACGCACU | 0.662 ± 0.21 | 0.253 ± 0.19
20 | UUGUAGCAAUAUUACGCGCA | -0.824 ± 0.17 | 0.43 ± 0.19
21 | UUGUAGCAAUAUUACGCUGG | -1.38 ± 0.15 | -1.77 ± 0.23
22 | UUGUAGCAAUAUUACGGUAG | -0.909 ± 0.18 | -0.181 ± 0.2
23 | UUGUAGCAAUAUUACGUCGC | -3.54 ± 0.46 | –
24 | UUGUAGCAAUAUUACGUCUU | -0.945 ± 0.16 | -0.491 ± 0.19

Row | Sequence | self-splicing fitness (ln) (30 °C) | self-splicing fitness (ln) (37 °C)
25 | UUGUAGCAAUAUUACGUGCU | -3.17 ± 0.27 | -1.54 ± 0.21
26 | UUGUAGCAAUAUUACGUGGC | – | -2.15 ± 0.47
27 | UUUAAGCAAUAUUACGAAGC | -1.88 ± 0.32 | -0.328 ± 0.42
28 | UUUAAGCAAUAUUACGAUGC | -1.41 ± 0.37 | –
29 | UUUAAGCAAUAUUACGCAAA | -1.59 ± 0.38 | -0.938 ± 0.28
30 | UUUAAGCAAUAUUACGCACU | -0.382 ± 0.1 | -0.128 ± 0.12
31 | UUUAAGCAAUAUUACGCCCA | 0.412 ± 0.32 | 0.619 ± 0.37
32 | UUUAAGCAAUAUUACGCGGU | -3.46 ± 0.26 | -1.85 ± 0.23
33 | UUUAAGCAAUAUUACGGAUG | -1.56 ± 0.1 | -0.852 ± 0.13
34 | UUUAAGCAAUAUUACGGCCC | 0.344 ± 0.32 | –
35 | UUUAAGCAAUAUUACGGGGU | -3.7 ± 0.22 | -1.7 ± 0.19
36 | UUUAAGCAAUAUUACGGGUA | -2.25 ± 0.13 | -0.422 ± 0.11
37 | UUUAAGCAAUAUUACGGGUC | -3.19 ± 0.35 | -2.25 ± 0.35
38 | UUUAAGCAAUAUUACGUGAA | -0.503 ± 0.093 | -0.616 ± 0.095
39 | UUUAAGCAAUAUUACGUGGU | -2.88 ± 0.16 | -2.62 ± 0.21
40 | UUUAAGCAAUAUUACGUGUG | -1.24 ± 0.096 | -0.602 ± 0.093
41 | UUUCAGCAAUAUUACGAAAA | -1.02 ± 0.15 | -0.793 ± 0.15
42 | UUUCAGCAAUAUUACGAACG | -0.381 ± 0.11 | 0.41 ± 0.14
43 | UUUCAGCAAUAUUACGAAUC | -1.94 ± 0.18 | -1.31 ± 0.24
44 | UUUCAGCAAUAUUACGACGA | -0.00347 ± 0.1 | 0.236 ± 0.12
45 | UUUCAGCAAUAUUACGCACG | -1.05 ± 0.12 | -0.0521 ± 0.13
46 | UUUCAGCAAUAUUACGCCCA | -1.19 ± 0.22 | -0.699 ± 0.22
47 | UUUCAGCAAUAUUACGCCCG | -0.734 ± 0.22 | 0.939 ± 0.3
